From patent US20250304677A1 (VIB VZW, published 2025)

Experiments:
[1] = target: T1, human folate receptor alpha (hFRα), recombinant protein (human, UniProt P15328 25-233); test: ELISA, periplasmic extract
T1 construct: Bought recombinant proteins (His-tagged, or biotinylated via Avi-tag, e.g. AcroBiosystems FO1-H82E2, F01-H52H1); also called hFOLR1; huFOLR1
From the text: (§1) From the lymphocytes of each llama a separate VHH library was constructed to select and screen for the presence of antigen-specific VHHs. To this end, total RNA from peripheral blood lymphocytes was used as template for first strand cDNA synthesis with an oligo ^{∘}dT) primer. Using this cDNA, the VHH encoding sequences were amplified by PCR, digested with PstI and NotI, cloned into the PstI and NotI sites of the phagemid vector pMECS and transformed into E. coli to generate VHH libraries. To enrich these libraries for FRα ^{∘}or FOLR1, as used interchangeably herein)-specific VHHs, a combinatorial panning approach on recombinant human and mouse FOLR1 was used followed by random selection and screening of clones by ELISA for the presence of antigen-specific VHHs in their periplasmic extracts ^{∘}PEs). In order to gauge the cross-reactivity for human and mouse FOLR1, each clone was tested on both antigens.
(§2) After panning of core76/77 on human and mouse folate receptor alpha ^{∘}FRα), […] were randomly selected from the second and third rounds and analyzed by ELISA on both human and mouse FRα for the presence of FRα-specific VHHs in their periplasmic extracts ^{∘}PE). This led to the identification of 98 hits. For these 98 hits, the off-rate ^{∘}koff) in the PE was determined by biolayer interferometry ^{∘}BLI) on both mouse and human FRα that was directly immobilized onto AR2G biosensors. The off-rates were calculated using a 1:1 binding model. […] Abbreviations: SE: standard error.

[2] = target: T2, mouse folate receptor alpha (mFRα), recombinant protein (mouse, UniProt P35846 25-232); test: ELISA, periplasmic extract
T2 construct: Bought recombinant proteins (e.g. biotinylated, Acro Biosystems FO1-M82E9); also called mFOLR1; Ms FOLR1
T2 sequence (P35846 25-232 limits assumed): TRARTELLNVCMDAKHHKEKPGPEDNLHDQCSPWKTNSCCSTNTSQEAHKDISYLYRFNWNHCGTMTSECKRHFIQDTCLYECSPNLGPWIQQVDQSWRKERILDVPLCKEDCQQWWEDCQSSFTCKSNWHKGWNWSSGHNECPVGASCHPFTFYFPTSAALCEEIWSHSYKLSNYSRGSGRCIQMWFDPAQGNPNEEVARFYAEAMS
From the text: as §1, §2

[3] = target: T2, mouse folate receptor alpha (mFRα), …; test: BLI, FRα on AR2G biosensors, 1:1 model
Description: As a next step, the kinetic binding constants were determined using BLI ^{∘}Table 3). […] Similar to the ELISA results ^{∘}FIG. 1A-B), higher binding affinities were measured for mouse FRα than human FRα, with KD values […] one order of magnitude in most cases. […] For 3HFO28, binding to human FRα could not be confirmed by BLI, and this VHH was excluded from further characterization.
The kinetic parameters were calculated using a 1:1 binding model.

[4] = target: T2, mouse folate receptor alpha (mFRα), …; test: BLI tandem binning on mouse FRα; competitor (1st association) 2MFR32
From the text: VHHs that share high sequence identity in the CDR3 region, a VHH family, are derived from the same B-cell lineage and diverged from each other due to somatic hypermutation or affinity maturation. Typically, VHHs from the same family recognize the same epitope on the target, but may differ in other characteristics ^{∘}De Genst et al 2006 PNAS 103:4586-4591; De Gents et al 2005 J Biol Chem 280:14114-14121). To study whether the VHHs from the different families bound different epitopes, epitope binning was performed using a tandem binding approach in BLI. One VHH from each family was allowed to bind to mouse FRα on the biosensor, followed by binding of the second VHH ^{∘}Table 4).
Competition between VHHs from different complementarity determining region ^{∘}CDR) 3 families was assessed in a tandem binding assay using biolayer interferometry ^{∘}BLI). Streptavidin biosensors were loaded with biotinylated mouse FRα ^{∘}Acro Biosystems, Cat.nr. FO1-M82E9), followed by binding of anti-FRα VHHs ^{∘}VHH in first association). The biosensors were then transferred to a solution containing a second VHH mixed 1:1 with the first VHH ^{∘}VHH in second association). Using the FortéBio Data Analysis Software the absolute additional binding signal for the second association on top of the first association was calculated. The data were normalized per VHH in first association using the following formula: ^{∘}signal-self)/^{∘}maximum-self) with self being the value of the VHH in first association in combination with the same VHH in second association.

human FRα Q141R = target: T3, human FRα Q141R (human, UniProt P15328 25-234); test: flow cytometry on transiently transfected HEK293T cells, mouse anti-His then anti-mouse-PE (B575-A)
T3 construct: The entry is the mutant itself
T3 sequence (P15328 25-234 Q141R limits assumed): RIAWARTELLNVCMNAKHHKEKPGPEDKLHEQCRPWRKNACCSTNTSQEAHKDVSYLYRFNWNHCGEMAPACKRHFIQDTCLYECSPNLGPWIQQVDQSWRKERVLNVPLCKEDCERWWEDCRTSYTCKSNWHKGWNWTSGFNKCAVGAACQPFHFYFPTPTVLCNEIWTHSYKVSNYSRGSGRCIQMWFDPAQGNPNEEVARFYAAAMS
From the text: (§3) FIGS. 2A-2C illustrates the epitope mapping of anti-FOLR1 VHHs on human FOLR1/2 chimeras. ^{∘}FIG. 2A) To narrow down the epitope of the anti-folate receptor alpha ^{∘}FOLR1) VHHs, chimeric constructs were generated by exchanging a sequence block in human FOLR1 ^{∘}hFOLR1) by the corresponding human folate receptor beta ^{∘}hFOLR2) sequence, since the VHHs are able to bind both hFOLR1 and mouse FOLR1 ^{∘}mFOLR1; SEQ ID No.97), but not hFOLR2. These regions are indicated by the green arrows. Chimera 1 SEQ ID No. 67) and 7 ^{∘}Ch7; SEQ ID No. 73) also contain an additional residue change at a separate location. […] HEK293T cells were transfected with hFOLR1, hFOLR2, one of the hFOLR1/2 chimeric constructs ^{∘}FIG. 2B) or single residue mutants ^{∘}FIG. 2C). Binding of VHHs 2HFO19, 2HFO42, 3MFR60, and a mouse anti-FOLR1 monoclonal antibody ^{∘}mAb) was detected using a mouse anti-His tag antibody for the VHHs followed by an anti-mouse-phycoerythrin antibody. All VHHs were tested at a concentration of 200 nM and untransfected cells were used as a negative control. The colors used for the VHHs represent the different CDR3 families; blue: family 1, green: family 3, grey: family 10.
(§4) To further narrow down which specific residues might play a role, single residues of human FRα in the chimera 4 region that are not conserved between FRα and FRβ were mutated to their human FRβ counterpart. While all VHHs retained binding to human FRα E140Q SEQ ID No. 77), R147H ^{∘}SEQ ID No. 79), and Y150H ^{∘}SEQ ID No. 80) ^{∘}data not shown), binding was completely abolished when the Q141R mutation ^{∘}SEQ ID No. 78) was introduced ^{∘}FIG. 2C). To verify the role of this residue in the binding of the VHHs, the R135 residue in human FRβ was replaced by glutamine ^{∘}SEQ ID No. 81) and binding of the VHHs was analyzed. […] In addition to having ^{∘}partially) overlapping epitopes, the VHHs thus all require residue Q141 for binding.

[5] = target: T4, human folate receptor beta (FRβ) (human, UniProt P14207 17-230, limits assumed); test: as above
T4 construct: also called hFOLR2; human FOLR2
T4 sequence (P14207 17-230 limits assumed): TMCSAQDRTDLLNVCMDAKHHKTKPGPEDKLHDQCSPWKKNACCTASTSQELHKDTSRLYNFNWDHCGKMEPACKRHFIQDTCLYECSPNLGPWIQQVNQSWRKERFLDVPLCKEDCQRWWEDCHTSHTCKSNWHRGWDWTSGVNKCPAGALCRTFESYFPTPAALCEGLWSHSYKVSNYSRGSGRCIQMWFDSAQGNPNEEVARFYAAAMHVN
From the text: as §3, §4

T1 sequence (P15328 25-233 limits assumed): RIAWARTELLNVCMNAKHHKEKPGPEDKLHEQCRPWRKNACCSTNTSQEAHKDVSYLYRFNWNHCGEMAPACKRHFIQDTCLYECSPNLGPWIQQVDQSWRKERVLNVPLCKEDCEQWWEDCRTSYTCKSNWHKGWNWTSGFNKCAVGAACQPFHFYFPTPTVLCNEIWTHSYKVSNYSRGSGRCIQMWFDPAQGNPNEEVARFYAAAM

PE-ELISA (ratio to uncoated well) [1] | PE-ELISA (ratio to uncoated well) [2] | Kd [3] [nM] | koff [3] [s⁻¹] | kon [3] [M⁻¹ s⁻¹] | normalized additional binding in 2nd association [4] [%] | binding result (human FRα Q141R) | binding result [5] | Binder
13.8 | 14.2 | 2.97 | 0.00393 | 1.32e+06 | 100 | no binding (tested: 200 nM) | no binding (tested: 200 nM) | VHH 2HFO19 (family 1) (VHH, also called Nb19) VHH: QVQLQESGGGLVQPGGSLRVSCAASGFPFSTVYMSWVRQAPGKGLEWVSGINNDGGVIDYADSVKGRFTISRDNAKNTLYLQLNSLKPEDTALYFCARGRSFVATLSSSLRGQGTQVTVSS
11.7 | 12.2 | 23.8 | 0.00467 | 203000 | 41 | no binding (tested: 200 nM) | no binding (tested: 200 nM) | VHH 2HFO42 (family 3) (VHH, also called 2HF042; Nb42) VHH: QVQLQESGGGLVQAGGSLRLSCAASGSGFSGMIMGWYRQVPGKQRELVATVTSHGTTNYADSVKGRFTISRDNAKNTVLLQMNSLKPEDTAVYYCNAHFPGIYWGKGTQVTVSS
4.8 | 4.9 | 2.59 | 0.00297 | 1.15e+06 | 75 | no binding (tested: 200 nM) | no binding (tested: 200 nM) | VHH 3MFR60 (family 10) (VHH) VHH: QVQLQESGGGLVQAGGSLRVSCAASGIIFSMNGMGWFRQAPGKQRELVASITSGGSTKYADSVKGRFTISRDNAKNTVYLQMNSLKPEDTAVYYCNIQFGSRWSTYWGQGTQVTVSS
